Source: publication PMC10177266, “Interaction between Human Papillomavirus-Encoded E6 Protein and AurB Induces Cell Immortalization and Proliferation—A Potential Target of Intervention” (Cancers, 2023)

B1: Flag-tagged Aurora kinase B (enzyme)
chain: MAQKENSYPWPYGRQTAPSGLSTLPQRVLRKEPVTPSALVLMSRSNVQPTAAPGQKVMENSSGTPDILTRHFTIDDFEIGRPLGKGKFGNVYLAREKKSHFIVALKVLFKSQIEKEGVEHQLRREIEIQAHLHHPNILRLYNYFYDRRRIYLILEYAPRGELYKELQKSCTFDEQRTATIMEELADALMYCHGKKVIHRDIKPENLLLGLKGELKIADFGWSVHAPSLRRKTMCGTLDYLPPEMIEGRMHNEKVDLWCIGVLCYELLVGNPPFESASHNETYRRIVKVDLKFPASVPMGAQDLISKLLRHNPSERLPLAQVSAHPWVRANSRRVLPPSALQSVA
notes: Aurora kinase B, human, from pcDNA:Flag-Aurora kinase B; the functional rows use this molecule for that purified protein; also called FL-AurB; Flag-AurB; source: in vitro translated (TNT Coupled Reticulocyte Lysate System, Promega)

Columns and labels:
Test in all cases: pull-down; purified GST fusion proteins on glutathione agarose incubated with in vitro-translated Flag-AurB for 1 h at room temperature; washed thrice with PBS with 0.1% Tween 20; bound AurB detected by western blot, quantitated with ImageJ and normalized to the GST fusion protein
[1] = molecular target: GST-HPV16 E6 with its C-terminus PDZ binding motif depleted (E6ΔPBM) (human papillomavirus type 16) (UniProt P03126)
[2] = molecular target: T1, GST-HPV16 E6 S89A (human papillomavirus type 16, UniProt P03126 1-158, S89A); details: one partner purified
T1 construct: E6 oncoprotein of human papillomavirus type 16 with S89A; source: E. coli, purified on glutathione-conjugated agarose resin

[3] = molecular target: T2, GST-HPV16 E6 S145A (human papillomavirus type 16, UniProt P03126 1-158, S145A); details: one partner purified
T2 construct: E6 oncoprotein of human papillomavirus type 16 with S145A; source: E. coli, purified on glutathione-conjugated agarose resin

[4] = molecular target: T3, GST-HPV16 E6 T140A (human papillomavirus type 16, UniProt P03126 1-158, T140A); details: one partner purified
T3 construct: E6 oncoprotein of human papillomavirus type 16 with T140A; source: E. coli, purified on glutathione-conjugated agarose resin

[5] = molecular target: T4, GST-HPV16 E6 S150A (human papillomavirus type 16, UniProt P03126 1-158, S150A); details: one partner purified
T4 construct: E6 oncoprotein of human papillomavirus type 16 with S150A; source: E. coli, purified on glutathione-conjugated agarose resin

Row | Molecule | fold of bound AurB against E6 wild type [1] [fold] | bound AurB, percent of E6 wild type [2] [%] | bound AurB, percent of E6 wild type [3] [%] | bound AurB, percent of E6 wild type [4] [%] | bound AurB, percent of E6 wild type [5] [%]
1 | Flag-tagged Aurora kinase B (from UniProt Q96GD4 1-344) (enzyme) | 3 | – | – | – | –
2 | B1 | – | 44 | 27 | 45 | 57
